From the DeepSol protein solubility set

Test: soluble on expression in E. coli; label from the status in PepcDB or PDB records

**Q.** For “MSLSLYDSAHSLDGKSGWDTPVFSMKDSMDRNPMVTEAWEALCQSQVYFRGKPVGTIAAYDHASEEVLNYDQVFVRDFVPSALAFLMNGEPEIVKNFLLKTLHIQGQDKMIDKFKLGDGAMPASFKVLHNPIKKTDTIIADFGESAIGRVAPVDSGFWWIILLRAYTKSTGDHSLAERPECQKGMRLILSLCLSEGFDTFPTLLCADGCSMVDRRMGIYGYPIEIQALFFMALRSALSMLKHDSEGKEFMEKIVKRLHALSFHMRSYFWLDFQQLNDIYRYKTEEYSHTAVNKFNVIPDSIPDWIFDFMPLRGGYFVGNVSPARMDFRWFALGNCIAILSSLATPEQSMAIMDLIEARWEELVGEMPLKICYPAMESHEWGIVTGCDPKNTRWSYHNGGSWPVLLWLLTAASIKTGRPQIARRAIELAEARLLKDGWPEYYDGKSGRFIGKQARKSQTWSIAGYLVAKMMMDDPTHVGMISMEEEKHMKPPLRRSSSWT”, which “soluble on expression in E. coli” value is on record?
**A.** soluble

**Q.** For “VTKIVSHRGANRFAPENTFAAADLALQQGADYIELDVRESADGVLYVIHDETLDRTTNGTGPVGHMLSSEIDTLDAGGWFDDRFKGAIVPRLDAYLEHLRGRAGVYIELKYCDPAKVAALVRHLGMVRDTFYFSFSEEMRQGLQSIAPEFRRMMTLDIAKSPSLVGAVHHASIIEITPAQMRRPGIIEASRKAGLEIMVYYGGDDMAVHREIATSDVDYINLDRPDLFAAVRSGMAELLLASNSSSTC”, which “soluble on expression in E. coli” value is on record?
**A.** soluble

**Q.** Which “soluble on expression in E. coli” value does the source give for “MGSDKIHHHHHHMRKLPPLRALQVFEAAARHLHFSRAAEELCLTQSAVSHQVRGLEQHLGQTLFARRGRELALTPKGEQLFLAVQSALDGLDSLCRQLNEAESRELRLAVYSSFAVKWLIPRLGDFRRQHPGIKIHLEMVSGDPPLSDQVADMFICGEQHQRGFWQTLLRPERLIPVCSPALANALGEALVMPLRLDSLPLLSVDEADIGPDWARWAKSQAQTLTQAQLQSYSHVLLAIEAAIAGQGIALASDFIVEGDIAAGKLMALPWPALETGFGFHFCCRERRLKEPAMAAFAEWIQQQAAMAG” here?
**A.** not soluble

**Q.** With “MATKKCINGHQYDSSIYGDNCPFCPSSHSTRVLDDDTTTGKTQVLGGNMNAETDTIDLGKSGQNNPGGATVIRHVNPTGGTGMASDNRRLVGLLVSYDQNPMGEVYKIYEGRNVIGRAATSDIPIPGDSNMSSQHLLILYREAEGIFWAADQNSSNGTYINGTFVGDRVQLYTNDVIVLGATKMIFLAIPQ” as the sequence, how does the “soluble on expression in E. coli” value read?
**A.** not soluble

**Q.** Which “soluble on expression in E. coli” value does the source give for “MTWQPFYVGTGQAPAGAEEQVVLPPAPPWREFPRRSQHRQFVPPPRLAEAVNAALALRRPLLVTGPAGSGKSTVIEQVAAELALGDVLRWHITSRSSLAEALYRYDALGRIHAQRLEGPGGSDDIAPFLRMGPLGTALLPSARPRALLIDEIDKSDLDLPSDLLDVLERGEFEIPELARYGTDVVPVREHGGERTHLIARGRVQCAEFPFIVMTSNGDRDFPAAFLRRCIRFTMPLPTPETLLRVVEAHMGPEKAAADETGRLITVFLERLTAGESLAVDQLLNAVHLLTGDGAPGDDRRQAIAELILRELSHALEHHHHHH” here?
**A.** not soluble

**Q.** For “MNTLISRQLGLLLHAHECVRRDIKIREAAEKNEPAPHAMCKIQDCVIMKEVLKHMTSCKEGPKCNSVHCASSRTILSHWKKCFNEECPVCKPIIEQRTAPPQDTTPAEPKKPEHDQIWHLEVPKTYRSELIEKIYKGIMSNVKPGTLSEAQMDTWKEYSRSAELQIFDTAQKLEAYYHMAREKVCRYQEGFPRRQKTEEKDESDGSEKEDEADDRLEGTSTDYQGS”, which “soluble on expression in E. coli” value is on record?
**A.** not soluble

**Q.** For “MAFRVLVIGGYGNFGSLICNHLAMMPDIELVISGRDPRKLAEKVAALQTLAGRFCQSWCVDIMQDGAGSELGELGIDLLIHTAGPFQGQSYAVARHCIAAGVNYCDLSDCRTFVSGIATLDALAREAGVCVLSGCSSVPTLSAAIIDQHRQRFLRIDSIEHGISSAAKMPGLSTVR”, which “soluble on expression in E. coli” value is on record?
**A.** not soluble

**Q.** For “MGSDKIHHHHHHMYEEIIEKLDLQMNRMISFLSKKMRLFFQDLEKRFTNRAILLYGPRGAGKTTFLLSMARKHGFLYVSGDEILLLDVPLHDLFQEIMKNYPGIIIDEVHLLKNWSTILKVLYDSFPDKVIWTSDSSSVLLRKGISDLSRRFVLIRMPLMSFREFIHFETGKTLRKLSSPFEVSIDYAAEALKEVDLMSLFRKYRETGTRPFYVEGNFREKLMNILQKAIYYDVPHFLGTVTENHLGVMKAIVGHLLHSKIPTINVESMCREWGVGKQKFYQLLQTMEEIELVNIVRKKRVEKPFSKGEKIFLSDPAMYYAFEGEIGNFREAFVVFALKEIGKIYAVKNEEEGDYVFEGIKIEVGGKSKKKKSSDFVIRDDVDLPVRNVIPMWMLGMLW”, which “soluble on expression in E. coli” value is on record?
**A.** not soluble

**Q.** For “MAHHHHHHMAVSINSQLKYVVNQAASVEADMNCVERVQHYTSNIEHEDLMEEIDEAIRALEKNDKKRRERKGDPITPAGITHDDDDTSTATVSVPLLEESHASDASPELSYSPADNNNHNDDNGRRENVAAGSLEFRDVTMRYRAGLPHVLCGLTFTIPAGQKVGVIGRTGSGKSSLLLTLLRVVDIEDGQIVLSGRPIRSYSLRALRQLFSMIPQDPLLFNGKVRENLDPLNVCSDAQVREAIRLVGMEDRLAAETDPLQCPVEEGGANFSVGQRQLLCMARTLLRRGCSFILMDEATANVDPTLDKQIQHVVTHVFAGHTVITIAHRLHTLATYDVILMMEEGRVVEMGSPYDLVRSADTRFAQMVRSLGESAMQEFMASTQAPTR”, which “soluble on expression in E. coli” value is on record?
**A.** not soluble

**Q.** With “MIALDQHLTEHKKDITQQWLEVCTSNGSWLYSAKDQQKLGQKLKDQHELLVTIVAKSLRKEDVEDELNRWSLQCARDRAVHEVTVTQSFGQFNTFRHIMFEWIHKFSEASSQDISIQEFYEWSRILNQNIDEIIEVFTEEYHQVTMIQLNAQKEMINELSAPIMPITDGIGILPLVGEIDTHRARTILESVLEQCSALKLSYLFLDISGVPIVDTMVAYQIFKVIDSTKLLGIETIISGIRPEIAQTVVKLGLDFSNVKTEQSLAKALANKGFKIKEC” as the sequence, how does the “soluble on expression in E. coli” value read?
**A.** not soluble

**Q.** Which “soluble on expression in E. coli” value does the source give for “ADPWQECMDYAVTLARQAGEVVCEAIKNEMNVMLKSSPVDLVTATDQKVEKMLISSIKEKYPSHSFIGEESVAAGEKSILTDNPTWIIDPIDGTTNFVHRFPFVAVSIGFAVNKKIEFGVVYSCVEGKMYTARKGKGAFCNGQKLQVSQQEDITKSLLVTELGSSRTPETVRMVLSNMEKLFCIPVHGIRSVGTAAVNMCLVATGGADAYYEMGIHCWDVAGAGIIVTEAGGVLMDVTGGPFDLMSRRVIAANNRILAERIAKEIQVIPLQRDDED” here?
**A.** soluble

**Q.** With “MNKCFLKIAIVAGEESGDLLGADLISCLSQQTGCKIDLIGVGGRHLKALGLKSFFDFQDIALIGLGTVLKKLPLLLIHIHNLSKFIAKEQPDCLIIIDSPDFTHRVAKKVHVLAPSIPIIKYIAPTVWAWRPERAKAMRKFVDHVLAVFPFEKKIMQDLGGPPTTYVGHRLLTYPPLLTIQSKKRHQSEKKHVFAKQTSSPTLVILPGSRNLEIRYLMPIFREAVEILIQRIPHLHIILPTLPHFVDEIRAFVQSWKNKVEILVDEDAKWHAFSKADVALAALGTVSLELALAKIPMVLCYKLDRFSKLFIFPKIMLWSAALPNIISDKPIVPEYFNEFLRPGMLARQIEELLYNPLLRQAQLDVFEMVEQKMKTEVPSGVIAAQTIVTLLKKRSGSLKFS” as the sequence, how does the “soluble on expression in E. coli” value read?
**A.** not soluble

**Q.** For “KEIIVNENDILLLWDGSNAGEIFLGKKGILSSTMVKLEQKNKIMDDLYLFYSLKLKESFLKSQTKGTGIPHVDKKIFENIKIPLPPLEEQKQIAKILSDFDN”, which “soluble on expression in E. coli” value is on record?
**A.** not soluble

**Q.** With “MGSDKIHHHHHHMLKNDQLDQWDRDNFFHPSTHLAQHARGESANRVIKTASGVFIEDRDGTKLLDAFAGLYCVNVGYGRQEIAEAIADQARELAYYHSYVGHGTEASITLAKMILDRAPKNMSKVYFGLGGSDANETNVKLIWYYNNILGRPEKKKIISRWRGYHGSGLVTGSLTGLELFHKKFDLPVEQVIHTEAPYYFRREDLNQTEEQFVAHCVAELEALIEREGADTIAAFIGEPILGTGGIVPPPAGYWEAIQTVLNKHDILLVADEVVTGFGRLGTMFGSDHYGLEPDIITIAKGLTSAYAPLSGSIVSDKVWKVLEQGTDENGPIGHGWTYSAHPIGAAAGVANLKLLDELNLVSNAGEVGAYLNATMAEALSQHANVGDVRGEGLLCAVEFVKDRDSRTFFDAADKIGPQISAKLLEQDKIIARAMPQGDILGFAPPFCLTRAEADQVVEGTLRAVKAVLG” as the sequence, how does the “soluble on expression in E. coli” value read?
**A.** not soluble

**Q.** Which “soluble on expression in E. coli” value does the source give for “MVRIYTLTLAPSLDSATITPQIYPEGKLRCTAPVFEPGGGGINVARAIAHLGGSATAIFPAGGATGEHLVSLLADENVPVATVEAKDWTRQNLHVHVEASGEQYRFVMPGAALNEDEFRQLEEQVLEIESGAILVISGSLPPGVKLEKLTQLISAAQKQGIRCIVDSSGEALSAALAIGNIELVKPNQKELSALVNRELTQPDDVRKAAQEIVNSGKAKRVVVSLGPQGALGVDSENCIQVVPPPVKSQSTVGAGDSMVGAMTLKLAENASLEEMVRFGVAAGSAATLNQGTRLCSHDDTQKIYAYLSR” here?
**A.** soluble

**Q.** Which “soluble on expression in E. coli” value does the source give for “RILDIDPVAQTAVVEPGVVCDALRDAAAEFGLTYGPDPSTHSRCTIGGMVANNACGSHSVAFGTAAENLVDVTLMLSDGREVTVTKDGCDDAEINQKLTDLASKNQDLISKELGRFPRQVSGYGLHYLAHDMAKAMAGTEGTIGIITRLTVKLVPTP” here?
**A.** not soluble

**Q.** Which “soluble on expression in E. coli” value does the source give for “MKNIAAQMVNFDREQMRRIANIDNQDMTISVWVFPDTDISDVSRELIAAIKQGYLTVKAAGVWAGGIETPSVETPSEGSKFFGFDMDNEFISGFDVGAWGVLL” here?
**A.** soluble

**Q.** Which “soluble on expression in E. coli” value does the source give for “MKVYKDVFTNDEVCSDSYNQEDPFGIADFREIAFEVKSNKRIKGNDDYGIADNSEEAVDGMGADVEQVIDIVDSFQLTSTSLSKKEYSVYIKNYMQKILKYLEEKKPDRVDVFKTKAQPLIKHILTNFDDFEFYMGESLDMDAGLTYSYYKGEEVTPRFVYISDGLYEEKF” here?
**A.** soluble

**Q.** With “MAHHHHHHMQKTLFDFVRKGTSSGPAAANAVAAAHRERQWPSASNGEDSTPRTDSPPKKHAKTRREGSRSRGNSRECEGTSLKGASRDDAIDLDASVSVALLESTFPPSEEGGAIDKSKHVSSGTAVPAGAAATAAASSGTARSDAPQLQPAATSSRWLAGLITNLEWRDFLAPITVDSWRSGAFARIEHFLDGEMAKGKVILPPATDIFNAFNSCPFRDLKVVLLGQDPYHDLHQAHGLCFSVLPEVPLPPSLRNIYKELTTDIPGFQAPRHGYLQSWSEQGMLMLNATLTVEAHKANSHSKASGWTAFTDAVIQHLSQHHPNRLVFLLWGGYAQQKKKLIDASRHIVLESVHPSPLSASRGWFGCHCFSACNEALQSMGHLPMHWQLPLNASLP” as the sequence, how does the “soluble on expression in E. coli” value read?
**A.** not soluble

**Q.** With “MSSRIEQIIDEIDEFIESCKFQPLSATKIIVNKEEIEELLRELRLKTPDEIKRYQKIISNKDAILEDAQSKADAIIADAQAKAQELVTQHEIMQKAYAQANDTINAANKQAQEILDSATQDANSIRLSAITYTDDMMANIGSVLNQTLEDAGGKYKGFIDALQSCLDVVNHNRQELAPQTAQAAAMTGSYHEEPADAPEEDSLLDDLGEE” as the sequence, how does the “soluble on expression in E. coli” value read?
**A.** not soluble

**Q.** For “METPLVSIVSICWNRKDEICESLNNIRKIDYESLEIIVVDNGSTDGTVEKIEEDFKEVKLIKMPKNAGIEAYNVGFKSAAGEYIVILDDDSFPEKNSIKRMVKKFQKDDKLGMVAFDVRNYYNYDEVKKIDTEETSNDTAAESDEYIMAFNGAGAGVRTEVLKKAGFYPEEFFLYWNEQDTAFRILDMGYKIKFFADVIAYHKYSPKNRASWRAPFYYTRNAFFLVWKNYSTKAALKKTIELIYDCFYYSMEQKTNIYLKAMWNAFMNFNKIKGKRKVVDKYIEENLRIPLNVSFTFYKLEHHHHHH”, which “soluble on expression in E. coli” value is on record?
**A.** not soluble
